# Test results: US20260193366A1 (APOGEE THERAPEUTICS, published 2026)
# T1: hIL-4Rα on cells (human, UniProt P24394 26-825)
# T1 sequence: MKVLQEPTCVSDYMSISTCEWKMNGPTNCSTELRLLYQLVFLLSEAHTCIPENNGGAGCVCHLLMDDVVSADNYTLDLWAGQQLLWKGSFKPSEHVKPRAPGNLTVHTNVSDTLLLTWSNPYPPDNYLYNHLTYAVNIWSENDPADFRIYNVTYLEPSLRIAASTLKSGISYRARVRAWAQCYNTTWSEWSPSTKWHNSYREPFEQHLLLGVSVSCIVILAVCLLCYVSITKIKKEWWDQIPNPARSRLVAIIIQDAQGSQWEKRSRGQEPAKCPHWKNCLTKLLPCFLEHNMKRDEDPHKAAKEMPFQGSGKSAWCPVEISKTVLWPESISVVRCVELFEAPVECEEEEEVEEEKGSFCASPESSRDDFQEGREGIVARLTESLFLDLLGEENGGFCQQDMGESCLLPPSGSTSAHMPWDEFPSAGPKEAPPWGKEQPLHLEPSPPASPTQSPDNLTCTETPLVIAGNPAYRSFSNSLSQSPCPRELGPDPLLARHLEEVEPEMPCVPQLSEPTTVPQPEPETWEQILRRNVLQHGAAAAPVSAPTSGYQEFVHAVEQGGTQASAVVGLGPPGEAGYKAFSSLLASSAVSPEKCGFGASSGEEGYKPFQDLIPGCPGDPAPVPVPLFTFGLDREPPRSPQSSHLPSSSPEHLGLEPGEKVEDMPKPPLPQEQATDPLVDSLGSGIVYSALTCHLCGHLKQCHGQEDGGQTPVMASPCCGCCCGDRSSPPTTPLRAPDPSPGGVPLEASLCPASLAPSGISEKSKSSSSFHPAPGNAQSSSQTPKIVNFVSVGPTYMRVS
# Tests used:
# hIL-4Rα on cells [1] = target: T1, hIL-4Rα on cells; assay: FACS on HEK293 cells, competitor biotin-hIL-13
# Experimental: (§1) Briefly, HEK293 previously transduced to stably express both hIL-13Rα and hIL-4Rα were cultured and harvested. Cells were seeded at 200,000 cells in 100 uL per well. Cells were washed and the supernatant discarded. […] The cells were stained in this mixture at 4° C. for 1 hour. […] Cells were incubated 4° C. for 1 hour, protected from light. Cells were then washed and the MFI of cells in each well were recorded by FACS using a BD FACSCanto II. Subsequent data were analyzed using GraphPad Prism.
# (§2) The values reflect absolute IC₅₀ measurements.
# hIL-4Rα on cells [2] = target: T1, hIL-4Rα on cells; assay: cell-based or functional assay
# hIL-4Rα on cells [3] = target: T1, hIL-4Rα on cells; assay: FACS on HEK293 cells, competitor biotin-hIL-4
# Experimental: as §1, §2
# hIL-4Rα on cells [4] = target: T1, hIL-4Rα on cells; assay: cell-based or functional assay; remark: listed apart in the source
# hIL-4Rα on cells [5] = target: T1, hIL-4Rα on cells; assay: cell-based or functional assay; remark: listed apart in the source
IC50 (hIL-4Rα on cells [1]),Inhibition of IL-4 induced pSTAT6 IC50 (hIL-4Rα on cells [2]),Inhibition of IL-13 induced pSTAT6 IC50 (hIL-4Rα on cells [2]),IC50 (hIL-4Rα on cells [3]),Inhibition of IL-4 induced TARC IC50 (hIL-4Rα on cells [4]),Inhibition of IL-13 induced TARC IC50 (hIL-4Rα on cells [4]),Inhibition of IL-4 induced TF-1 Proliferation IC50 (hIL-4Rα on cells [5]),Inhibition of IL-13 induced TF-1 Proliferation IC50 (hIL-4Rα on cells [5]),Binder
0.235 nM,0.185 nM,0.612 nM,0.238 nM,0.179 nM,0.261 nM,0.038 nM,0.119 nM,"Construct 13 (mAb422) with IgG1 YTE LALA heavy chain constant region (antibody, V domains shown) VH: EVQLVESGGGLEQPGGSLRLSCAGSGFTFRDFAMTWVRQAPGKGLEWVSSVSGSGGNTYYADSVKGRFTISRDNSKNTLYLQMNSLRAEDTAVYYCAKDRLSVTVRPRYYGLDVWGQGTTVTVSS VL: DIVMTQSPLSLPVTPGEPASISCRSSQSVLYSIGYNYVDWYLQKSGQSPQLLIYLGNKRASGVPDRFSGSGSGTDFTLKISRVEAEDVGFYYCMQSLTSPYTFGQGTKLEIK"
0.234 nM,0.269 nM,1.09 nM,0.234 nM,0.222 nM,0.361 nM,0.052 nM,0.166 nM,"Construct 24 (mAb432) with IgG1 YTE LALA heavy chain constant region (antibody, V domains shown) VH: EVQLVESGGGLEQPGGSLRLSCAGSGFTFRDFAMTWVRQAPGKGLEWVSSISGSGGNIYYADSVKGRFTISRDNSKNTLYLQMNSLRAEDTAVYYCAKDRLSIAVRPRYYGLDVWGQGTTVTVSS VL: DIVMTQSPLSLPVTPGEPASISCTASQSLLYSIGKNYVDWYLQKSGQSPQLLIYLGNNRATGVPDRFSGSGSGTDFTLKISRVEAEDVGFYYCMQSLTSPYTFGQGTKLEIK"
0.209 nM,0.452 nM,0.916 nM,0.279 nM,0.228 nM,0.456 nM,0.058 nM,0.175 nM,"Construct 31 (mAb443) with IgG1 YTE LALA heavy chain constant region (antibody, V domains shown) VH: EVQLVESGGGLEQPGGSLRLSCAGSGFTFRDFAMTWVRQAPGKGLEWVSSISGSGGNIYYADSVKGRFTISRDNSKNTLYLQMNSLRAEDTAVYYCAKDRLSVTVRPRYYGLDVWGQGTTVTVSS VL: DIVMTQSPLSLPVTPGEPASISCRSSQSLLYSNGYNYLDWYLQKSGQSPQLLIYLGSNRASGVPDRFSGSGSGTDFTLKISRVEAEDVGFYYCMQALQAPYTFGQGTKLEIK"
0.204 nM,0.122 nM,0.599 nM,0.23 nM,0.127 nM,0.212 nM,0.028 nM,0.117 nM,"Construct 15 (mAb423) with IgG1 YTE LALA heavy chain constant region (antibody, V domains shown) VH: EVQLVESGGGLEQPGGSLRLSCAGSGFTFRDFAMTWVRQAPGKGLEWVSSISGSGGNIYYADSVKGRFTISRDNSKNTLYLQMNSLRAEDTAVYYCAKDRLSKTIRPRYYGLDVWGQGTTVTVSS VL: DIVMTQSPLSLPVTPGEPASISCTASQSLLYSIGYNYVDWYLQKSGQSPQLLIYLGNKRASGVPDRFSGSGSGTDFTLKISRVEAEDVGFYYCMQSLTSPYTFGQGTKLEIK"
